We go through seven substances from article PMC3221699.

The target of assay [1] is Rhesus cytomegalovirus IL-10 (RhCMVIL-10), wild type (rhesus cytomegalovirus (RhCMV) strain 68-1). In words: SEC; 24 mL Superdex 200 gel filtration column; elution position of affinity purified RhCMVIL-10 compared with cIL-10; fractions analysed by SDS-PAGE.
The target in assay [2] is IL-10R1-FC fusion protein (human IL-10R1 extracellular region fused to mouse IgG2a FC) (human) (UniProt Q13651). Nature of the assay: SPR; Biacore T200, 20 °C, HBS (10 mM Hepes pH 7.4, 0.15 M NaCl, 0.1% P20, 0.1 mg/mL BSA); IL-10R1-FC captured (~75 RU) by anti-murine FC antibody on a CM5 chip; RhCMVIL-10 (0-100 nM) or M1/M2 (100, 500, 1000 nM) injected at 75 µL/min; global fit to a bivalent analyte model (Rmax, and tc for M1, fixed for the mutants); KD2 called apparent.

Assay [3] deals with human IL-10R1 chain coupled to agarose beads (human) (UniProt Q13651).
For assay [4], the target named is IL-10R1 (Homo sapiens) (UniProt Q13651). To be noted: cited from earlier work.
For assay [5] the target is unchanged. Conditions: cited from earlier work. This is another data set of the same source.

Read-outs that look alike come from different tables or passages of the source.

cIL-10, sequence (P22301 19-178): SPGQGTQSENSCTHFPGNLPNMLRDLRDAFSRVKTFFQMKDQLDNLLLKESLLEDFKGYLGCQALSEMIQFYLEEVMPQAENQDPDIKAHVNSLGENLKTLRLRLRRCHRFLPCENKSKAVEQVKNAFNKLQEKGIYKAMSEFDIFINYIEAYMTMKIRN

In turn, “Rhesus cytomegalovirus IL-10 (RhCMVIL-10), wild type (ligand)” registered a stoichiometry N in assay [1] of 2. For the same substance, in assay [2], the KD1 (bivalent analyte model, kd1/ka1) worked out at 0.0651 µM; the KD2 (bivalent analyte model, apparent, kd2/ka1) turned out to be 1.3 nM; the Rm-obs (maximum RU observed at the highest concentration, 100 nM) is 20.9 RU; the ka1 (bivalent analyte model, first step) stood at 1.18e+06 M⁻¹ s⁻¹. In addition, in assay [2], the ka2 (bivalent analyte model, second step) is 0.00105 1/RUs; the kd1 (bivalent analyte model, first step) stood at 0.0767 s⁻¹; the kd2 (bivalent analyte model, second step) is 0.00155 s⁻¹.
In turn, H6FXa-RhCMVIL-10 Gln-38Arg (ligand) came in with a proliferation of TF-1/IL-10R1 cells, EC50 relative to RhCMVIL-10 and cIL-10; considerable activity retained at 1,000 ng/ml in assay [3] of 100 fold.
As to “RhCMVIL-10 mutant 2 (M2; Glu-142Gln, Asp-144His), RhCMVIL-10-FXaH6 (ligand)”, in assay [2], the KD1 (bivalent analyte model, kd1/ka1) is 14.7 µM; the KD2 (bivalent analyte model, apparent, kd2/ka1) worked out at 94.4 nM; the Rm-obs (maximum RU observed at the highest concentration, 1000 nM) worked out at 3 RU; the ka1 (bivalent analyte model, first step) was found to be 14500 M⁻¹ s⁻¹. In addition, in assay [2], the ka2 (bivalent analyte model, second step) was 0.000548 1/RUs; the kd1 (bivalent analyte model, first step) is 0.212 s⁻¹; the kd2 (bivalent analyte model, second step) was 0.00136 s⁻¹.
H6FXa-RhCMVIL-10 Asp-144His (ligand) had a proliferation of TF-1/IL-10R1 cells, EC50 relative to RhCMVIL-10 and cIL-10; considerable activity retained at 1,000 ng/ml in assay [3] of 300 fold.
Consider “RhCMVIL-10 mutant 1 (M1; Gln-38Arg, Asp-144His), RhCMVIL-10-FXaH6 (ligand)”, for which, in assay [2], the KD1 (bivalent analyte model, kd1/ka1) was found to be 43 µM; the KD2 (bivalent analyte model, apparent, kd2/ka1) amounted to 410 nM; the Rm-obs (maximum RU observed at the highest concentration, 1000 nM) was determined as 0.8 RU; the ka1 (bivalent analyte model, first step) amounted to 4620 M⁻¹ s⁻¹. Further, in assay [2], the ka2 (bivalent analyte model, second step) is 0.000232 1/RUs; the kd1 (bivalent analyte model, first step) amounted to 0.199 s⁻¹; the kd2 (bivalent analyte model, second step) amounted to 0.00187 s⁻¹.
As to cIL-10 (from UniProt P22301), the Kd in assay [4] was 1 nM.
As to CMVIL-10 (from UniProt P17150), the dissociation constant Kd in assay [5] was 1 nM.
